Like-named read-outs stand apart in the source and are kept apart here.
Key:
[1] = biological target: T1, PecS (VvPecS) (Vibrio vulnificus, UniProt A0A3Q0KXQ7); assay: EMSA: attenuation of purified VvPecS binding to pecS-pecM intergenic DNA (IC50 […]); supported by SYPRO Orange thermal shift (Tm […] to […] °C)
T1 construct: gene VV2_0325; His6-tagged VvPecS (BJE04_RS19600; old locus tag VVA0819), dimer

[2] = biological target: T1, PecS (VvPecS); assay: as above; remark: listed apart in the source
[3] = tested on: VvPecS (PecS) (Vibrio vulnificus YJ016); assay: EMSA; conditions: EMSA: 0.5 M Tris pH 8.0, 100 mM NaCl, 6% glycerol, 25 uM EDTA, 0.12% Brij-58, 50 ug BSA, 25 C, 20 min; footprint: 20 mM Tris pH 8.0, 50 mM NaCl, 5 mM MgCl2 …
[4] = tested on: VvPecS (PecS) (Vibrio vulnificus YJ016); assay: EMSA; conditions: EMSA: 0.5 M Tris pH 8.0, 100 mM NaCl, 6% glycerol, 25 uM EDTA, 0.12% Brij-58, 50 ug BSA, 25 C, 20 min; footprint: 20 mM Tris pH 8.0, 50 mM NaCl, 5 mM MgCl2 …; remark: listed apart in the source

T1 sequence (A0A3Q0KXQ7 entry or part of it): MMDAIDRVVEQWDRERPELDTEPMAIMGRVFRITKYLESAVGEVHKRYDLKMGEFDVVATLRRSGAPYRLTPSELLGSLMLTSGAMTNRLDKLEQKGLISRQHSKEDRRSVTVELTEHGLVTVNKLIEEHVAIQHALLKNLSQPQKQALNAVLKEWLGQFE

O=c1[nH]c(=O)c2[nH]c(=O)[nH]c2[nH]1 [urate] gave a Ki [1] of 226 ± 29 µM.

O=c1[nH]c(=O)c2[nH]cnc2[nH]1 [xanthine] showed a Ki [2] of 60 ± 5 µM.

With iNR (nsrR-nod intergenic DNA) the Kd [3] was 0.218 µM.

iSM (pecS-pecM intergenic DNA) gave an IC50 [3] of 366 µM, a Kd [3] of 0.0003 µM and an IC50 [4] of 1500 µM.

— paper PMC6391409, “A role for Vibrio vulnificus PecS during hypoxia” (Scientific Reports, 2019)
